From patent publication US20200392198A1 (UNIVERSITY OF COPENHAGEN, published 2020)
Where a chain is given by its changes, count along the chain named. Ends that are not written are not given here. * marks the point of attachment. Palmitoyl = CCCCCCCCCCCCCCCC(=O)*

T1: human GLP-2 receptor (human, UniProt O95838 1-553)
T1 sequence (looked up): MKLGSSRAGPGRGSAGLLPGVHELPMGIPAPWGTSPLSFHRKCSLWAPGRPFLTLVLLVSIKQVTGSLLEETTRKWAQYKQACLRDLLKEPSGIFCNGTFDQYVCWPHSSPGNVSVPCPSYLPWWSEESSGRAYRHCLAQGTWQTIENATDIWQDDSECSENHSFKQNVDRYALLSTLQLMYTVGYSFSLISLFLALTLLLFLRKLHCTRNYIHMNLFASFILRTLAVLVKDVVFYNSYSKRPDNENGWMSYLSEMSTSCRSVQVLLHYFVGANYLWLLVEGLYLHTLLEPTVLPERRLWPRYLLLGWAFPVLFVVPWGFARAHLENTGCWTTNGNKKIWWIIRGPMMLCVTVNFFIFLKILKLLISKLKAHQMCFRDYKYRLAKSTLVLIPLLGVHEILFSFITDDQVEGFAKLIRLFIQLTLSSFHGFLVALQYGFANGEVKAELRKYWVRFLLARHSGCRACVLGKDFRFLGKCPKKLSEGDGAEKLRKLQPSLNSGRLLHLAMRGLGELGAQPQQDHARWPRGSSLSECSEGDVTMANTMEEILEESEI

T2: human GIP receptor (human, UniProt P48546 22-466)
T2 sequence (looked up): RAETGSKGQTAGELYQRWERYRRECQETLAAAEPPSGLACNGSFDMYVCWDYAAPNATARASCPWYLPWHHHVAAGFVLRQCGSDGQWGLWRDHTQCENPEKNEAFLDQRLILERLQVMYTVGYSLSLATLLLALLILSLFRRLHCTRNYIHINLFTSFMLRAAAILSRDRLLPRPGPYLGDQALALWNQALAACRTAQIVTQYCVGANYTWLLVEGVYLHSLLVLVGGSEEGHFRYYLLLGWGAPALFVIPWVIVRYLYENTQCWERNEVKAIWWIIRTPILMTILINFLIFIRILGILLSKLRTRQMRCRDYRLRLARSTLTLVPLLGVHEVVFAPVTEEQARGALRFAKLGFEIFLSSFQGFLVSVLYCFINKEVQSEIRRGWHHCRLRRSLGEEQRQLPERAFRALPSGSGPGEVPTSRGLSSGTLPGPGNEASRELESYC

B1: GIP-GLP-2 co-agonist 21 (peptide)
peptide: HADGTFSSDYSTILDNLAAK(Palmitoyl)DFINWLIQTKITD
B2: GIP-GLP-2 co-agonist 20 (peptide)
peptide: HADGTFSSDYSTILDNLAAKDFINWLIQTKITD
B3: human native GLP-2 (ligand)
peptide: HADGSFSDEMNTILDNLAARDFINWLIQTKITD
B4: GIP-GLP-2 co-agonist 8 (peptide)
peptide: HAEGTFISDYSTILDNIHQQDFINWLIQTKITD
B5: GIP-GLP-2 co-agonist 9 (peptide)
peptide: HAEGTFISDYSTILDNLAARDFVNWLLAQKITD
B6: GIP-GLP-2 co-agonist 5 (peptide)
peptide: B3 peptide with D3E, S5T, M10Y, N11S
B7: GIP-GLP-2 co-agonist 2 (peptide)
peptide: HAEGTFISDYSTILDNLAARDFINWLIQTKITDNDWKHNITQ
B8: GIP-GLP-2 co-agonist 10 (peptide)
peptide: HAEGTFISDYSTILDNLAARDFINWLIQTKGKK
B9: GIP-GLP-2 co-agonist 12 (peptide)
peptide: B2 peptide with A2V, S7I, K20R
B10: GIP-GLP-2 co-agonist 17 (peptide)
peptide: B2 peptide with S7I, K20R, T32K
B11: GIP-GLP-2 co-agonist 3 (peptide)
peptide: B2 peptide with S7I, K20R
B12: GIP-GLP-2 co-agonist 6 (peptide)
peptide: HAEGTFISDMNTILDNLAARDFINWLIQTKITD
B13: GIP-GLP-2 co-agonist 13 (peptide)
peptide: B2 peptide with K20R
B14: GIP-GLP-2 co-agonist 1 (peptide)
peptide: B12 peptide with M10Y, N11S
B15: GIP-GLP-2 co-agonist 16 (peptide)
peptide: B2 peptide with S7I, K20R, I31G
B16: GIP-GLP-2 co-agonist 15 (peptide)
peptide: B2 peptide with S7I, D9E, K20R
B17: GIP-GLP-2 co-agonist 19 (peptide)
peptide: B8 peptide with E3D
B18: GIP-GLP-2 co-agonist 18 (peptide)
peptide: B2 peptide with S7I, K20R, D33K
B19: GIP-GLP-2 co-agonist 11 (peptide)
peptide: B2 peptide with A2G, S7I, K20R
B20: GIP-GLP-2 co-agonist 4 (peptide)
peptide: B12 peptide with T5S, M10Y, N11S
B21: GIP-GLP-2 co-agonist 14 (peptide)
peptide: B2 peptide with S7I, S8D, K20R
B22: GIP-GLP-2 co-agonist 7 (peptide)
peptide: HAEGTFISDYSIAMDKLAARDFINWLIQTKITD

These binders were tested against T1, human GLP-2 receptor (assay: cell-based or functional assay).

Binder | EC50 (cAMP) [nM] | Emax (10 µM), % of native GLP-2 [%] | fold (EC50 vs native GLP-2) [fold] | logEC50 (cAMP)
B1 | 6 | 75 | 5 | -8.22
B2 | 1.2 | 80 | 1 | -8.92

These binders were tested against T2, human GIP receptor (assay: cell-based or functional assay).

Binder | EC50 (cAMP) [nM] | Emax (10 µM), % of native GIP [%] | fold (EC50 vs native GIP) [fold] | logEC50 (cAMP)
B1 | 34 | 94 | 381 | -7.47
B3 | 56 | 22 |  | -7.25
B2 | 0.59 | 98 | 6.6 | -9.23

Biological target: T1, human GLP-2 receptor
Test: cell-based or functional assay
Remark: another data set of the same source

Binder | Emax (10 µM), % of native GLP-2 [%] | logEC50 (cAMP) | EC50 (cAMP) [nM] | fold (EC50 vs native GLP-2) [fold] | Emax (1 µM), % of native GLP-2 [%]
B4 | 22 | > -5 |  |  | 
B5 | 67 | -6.91 | 123 | 103 | 
B6 | 91 | -8.21 | 6.2 | 5.2 | 
B7 |  | -6.84 | 145 | 121 | 93
B8 | 77 | -7.66 | 22 | 18 | 
B9 | 81 | -7.6 | 25 | 21 | 
B10 | 88 | -7.61 | 25 | 21 | 
B11 | 100 | -7.67 | 21 | 18 | 
B12 | 70 | -7.22 | 60 | 50 | 
B13 | 99 | -7.95 | 11 | 9.2 | 
B14 |  | -7.01 | 98 | 82 | 93
B15 | 74 | -7.06 | 82 | 68 | 
B16 | 104 | -8.18 | 6.7 | 5.6 | 
B17 | 91 |  |  |  | 
B18 | 94 | -8.28 | 5.3 | 4.4 | 
B19 | 87 | -7.62 | 24 | 20 | 
B20 | 90 | -7.59 | 25 | 21 | 
B21 | 90 | -7.97 | 11 | 9.2 | 
B22 | 78 | -6.45 | 351 | 293 | 

Biological target: T2, human GIP receptor
Test: cell-based or functional assay
Remark: another data set of the same source

Binder | EC50 (cAMP) [nM] | Emax (10 µM), % of native GIP [%] | fold (EC50 vs native GIP) [fold] | logEC50 (cAMP) | Emax (1 µM), % of native GIP [%]
B4 | 5.9 | 100 | 66 | -8.23 | 
B5 | 3.2 | 100 | 36 | -8.5 | 
B3 | 56 | 22 |  | -7.25 | 
B6 | 456 | 75 | 5120 | -6.34 | 
B7 | 12 |  | 135 | -7.92 | 100
B8 | 5.4 | 100 | 61 | -8.27 | 
B9 | 1.1 | 96 | 12 | -8.96 | 
B10 | 0.4 | 95 | 4.5 | -9.39 | 
B11 | 0.11 | 100 | 1.2 | -9.97 | 
B12 | 172 | 83 | 1930 | -6.77 | 
B13 | 12 | 91 | 135 | -7.92 | 
B14 | 30 |  | 337 | -7.53 | 100
B15 | 0.6 | 95 | 6.7 | -9.22 | 
B16 | 3.2 | 92 | 36 | -8.5 | 
B17 | 0.25 | 93 |  | -9.6 | 
B18 | 0.66 | 89 | 7.4 | -9.18 | 
B19 | 3.2 | 95 | 36 | -8.5 | 
B20 | 38 | 83 | 427 | -7.42 | 
B21 | 2.4 | 94 | 27 | -8.63 | 
B22 | 26 | 92 | 292 | -7.59 | 
